Results from the supplement of paper PMC10567573.

B1: SOAT2 (parent)
chain: SLGKQKVFIIRKSLLDELMEVQHF

Variants of: B1
Test: protein stability index of a GFP-peptide fusion (GPS, HEK-293T) (PSI 1-6); higher = more stable
Conditions: c terminus: a fixed tail appended
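Also: lentivirally expressed fusions sorted by FACS into six bins by GFP to DsRed ratio, PSI derived from sequencing read proportions per bin multiplied by bin number.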

Protein stability index of substitutions, site by site:
E17: T 3.87; N 2.79; L 2.79; Q 3.16; S 3.09; Y 1.85; R 2.41; H 4.16; W 3.08; V 3.36; P 2.21; D 2.51; I 2.86; K 2.17; F 2.52; C 3.21; M 2.7; A 3.06; G 2.81
D16: W 3.25; Y 3.13; T 2.14
L18: D 2.01; N 2.54; C 1.95; T 1.31; F 1.41; A 1.46; M 1.7; S 1.25; V 2.5; G 2.62; H 1.85; K 2.11; Q 2.21; P 1.38; R 1.98; I 2.71; Y 2.46; E 1.8
H23: E 1.9; R 1.66; C 2.69; I 2.72; S 1.79; W 3.71; D 1.67; K 1.41; F 1.87; P 2.65; M 1.69; Y 2.64; V 3.33; G 1.86; Q 2.31; T 2.07; A 2.24; N 2.52
M19: H 2.93; Y 1.36; I 2.25; D 2.24; Q 2.25; F 3.18; K 2.89; E 1.69; L 2.67; P 2.08; R 1.94; T 1.74; G 2.23; W 2.41; S 2.25; A 3.02; C 2.15; V 1.66; N 3.23
Q22: F 2.2; L 2.24; Y 2.55; T 3.05; N 2.22; V 1.49; R 3.46; W 2.77; K 2.35; D 1.91; E 2.74; A 2.4; C 2.01; S 1.68; P 1.79; M 2.09; H 1.91; G 3.24
E20: D 1.63; L 3.13; T 2.8; V 1.83; S 2.48; I 2.03; N 3.04; K 2.57; Y 2.9; F 3.11; H 1.45; C 2.19; P 1.45; G 2.85; Q 1.62; M 2.66; R 2.84
V21: W 2.46; D 1.74; A 3.1; M 1.89; P 2.16; L 2; K 2.08; T 1.93; I 3.07; Q 4; G 1.77; E 1.99; N 2; S 2.63; F 2.85; R 2.92; H 2.23; Y 2.38; C 3.18
F24: Q 2.75; M 2.2; I 2.9; R 2.03; Y 2.74; E 1.71; N 1.9; G 1.68; P 2.27; D 2.65; W 2.78; K 2.4; S 2.25; T 1.8; A 1.8; L 2.18; H 1.36; C 2.09
